B1: Ume1 (natural protein)
chain: MSTLDIAEDNKIKNEEFKIWKKSIPSLYQHISSLKPIFGSGVDESPSTLRSIVFTNDSSCNKSKGVLSVPLLYSQGSEIFEVDCIVPLGLHYKKPESISEPLVQPDYTMESQKVEQTVLIPKWEFKGETIAKMIYVDNSEINVKVIALSTNGSLAWFREGVKSPVYTMMEPSTSLSSASSGNQNKPCVDFAISNDSKTLTVTKEKHLDNENATIKLIDNSGKIGEVLRTIPVPGIKNIQEIKFLNNQIFATCSDDGIIRFWGNEIGKKPLWILNDSLDGKTTCFAASPFVDTLFMTGTSGGALKVWDIRAVIALGDADAELNINQGHNKVNELFKVHHFYSEQVSKIEFSSISPMEVVTIGGLGNVYHWNFEPVFAIYNEIHEDFQGIISDELEAESMAFYHTEGCRREIGENNKVNTVAYHKYIEDLVATVDSDGLLTVYKPFTGKVLDGSREVGAAKS
B2: Eaf3 (natural protein)
chain: MVDLEQEFALGGRCLAFHGPLMYEAKILKIWDPSSKMYTSIPNDKPGGSSQATKEIKPQKLGEDESIPEEIINGKCFFIHYQGWKSSWDEWVGYDRIRAYNEENIAMKKRLANEAKEAKKSLLEQQKKKKLSTSLGGPSNGGKRKGDSRSNASISKSTSQSFLTSSVSGRKSGRSSANSLHPGSSLRSSSDQNGNDDRRRSSSLSPNMLHHIAGYPTPKISLQIPIKLKSVLVDDWEYVTKDKKICRLPADVTVEMVLNKYEHEVSQELESPGSQSQLSEYCAGLKLYFDKCLGNMLLYRLERLQYDELLKKSSKDQKPLVPIRIYGAIHLLRLISVLPELISSTTMDLQSCQLLIKQTEDFLVWLLMHVDEYFNDKDPNRSDDALYVNTSSQYEGVALGM
B3: Rco1 (natural protein)
chain: MDTSKKDTTRSPSHSNSSSPSSSSLSSSSSKEKKRPKRLSSQNVNYDLKRRKIITSEGIERSFKNEHSNLAVEDNIPEEEPKELLEKDSKGNIIKLNEPSTISEDSKVSVTGLPLNKGPSEKIKRESLWNYRKNLGGQSNNSEMTLVPSKRFTQVPKNFQDLNRNDLKTFLTENMTEESNIRSTIGWNGDIINRTRDREPESDRDNKKLSNIRTKIILSTNATYDSKSKLFGQNSIKSTSNASEKIFRDKNNSTIDFENEDFCSACNQSGSFLCCDTCPKSFHFLCLDPPIDPNNLPKGDWHCNECKFKIFINNSMATLKKIESNFIKQNNNVKIFAKLLFNIDSHNPKQFQLPNYIKETFPAVKTGSRGQYSDENDKIPLTDRQLFNTSYGQSITKLDSYNPDTHIDSNSGKFLICYKCNQTRLGSWSHPENSRLIMTCDYCQTPWHLDCVPRASFKNLGSKWKCPLHSPTKVYKKIHHCQEDNSVNYKVWKKQRLINKKNQLYYEPLQKIGYQNNGNIQIIPTTSHTDYDFNQDFKITQIDENSIKYDFFDKIYKSKMVQKRKLFQFQESLIDKLVSNGSQNGNSEDNMVKDIASLIYFQVSNNDKSSNNKSASKSNNLRKLWDLKELTNVVVPNELDSIQFNDFSSDEIKHLLYLKKIIESKPKEELLKFLNIENPENQSE
B4: Rpd3 (enzyme)
chain: MVYEATPFDPITVKPSDKRRVAYFYDADVGNYAYGAGHPMKPHRIRMAHSLIMNYGLYKKMEIYRAKPATKQEMCQFHTDEYIDFLSRVTPDNLEMFKRESVKFNVGDDCPVFDGLYEYCSISGGGSMEGAARLNRGKCDVAVNYAGGLHHAKKSEASGFCYLNDIVLGIIELLRYHPRVLYIDIDVHHGDGVEEAFYTTDRVMTCSFHKYGEFFPGTGELRDIGVGAGKNYAVNVPLRDGIDDATYRSVFEPVIKKIMEWYQPSAVVLQCGGDSLSGDRLGCFNLSMEGHANCVNYVKSFGIPMMVVGGGGYTMRNVARTWCFETGLLNNVVLDKDLPYNEYYEYYGPDYKLSVRPSNMFNVNTPEYLDKVMTNIFANLENTKYAPSVQLNHTPRDAEDLGDVEEDSAEAKDTKGGSQYARDLHVEHDNEFY

Experiments:
Experiment in all cases: cryo-EM structure
Sin3 = Sin3 (S. cerevisiae, UniProt P22579 1-1536)
Chain of Sin3 (P22579 whole entry): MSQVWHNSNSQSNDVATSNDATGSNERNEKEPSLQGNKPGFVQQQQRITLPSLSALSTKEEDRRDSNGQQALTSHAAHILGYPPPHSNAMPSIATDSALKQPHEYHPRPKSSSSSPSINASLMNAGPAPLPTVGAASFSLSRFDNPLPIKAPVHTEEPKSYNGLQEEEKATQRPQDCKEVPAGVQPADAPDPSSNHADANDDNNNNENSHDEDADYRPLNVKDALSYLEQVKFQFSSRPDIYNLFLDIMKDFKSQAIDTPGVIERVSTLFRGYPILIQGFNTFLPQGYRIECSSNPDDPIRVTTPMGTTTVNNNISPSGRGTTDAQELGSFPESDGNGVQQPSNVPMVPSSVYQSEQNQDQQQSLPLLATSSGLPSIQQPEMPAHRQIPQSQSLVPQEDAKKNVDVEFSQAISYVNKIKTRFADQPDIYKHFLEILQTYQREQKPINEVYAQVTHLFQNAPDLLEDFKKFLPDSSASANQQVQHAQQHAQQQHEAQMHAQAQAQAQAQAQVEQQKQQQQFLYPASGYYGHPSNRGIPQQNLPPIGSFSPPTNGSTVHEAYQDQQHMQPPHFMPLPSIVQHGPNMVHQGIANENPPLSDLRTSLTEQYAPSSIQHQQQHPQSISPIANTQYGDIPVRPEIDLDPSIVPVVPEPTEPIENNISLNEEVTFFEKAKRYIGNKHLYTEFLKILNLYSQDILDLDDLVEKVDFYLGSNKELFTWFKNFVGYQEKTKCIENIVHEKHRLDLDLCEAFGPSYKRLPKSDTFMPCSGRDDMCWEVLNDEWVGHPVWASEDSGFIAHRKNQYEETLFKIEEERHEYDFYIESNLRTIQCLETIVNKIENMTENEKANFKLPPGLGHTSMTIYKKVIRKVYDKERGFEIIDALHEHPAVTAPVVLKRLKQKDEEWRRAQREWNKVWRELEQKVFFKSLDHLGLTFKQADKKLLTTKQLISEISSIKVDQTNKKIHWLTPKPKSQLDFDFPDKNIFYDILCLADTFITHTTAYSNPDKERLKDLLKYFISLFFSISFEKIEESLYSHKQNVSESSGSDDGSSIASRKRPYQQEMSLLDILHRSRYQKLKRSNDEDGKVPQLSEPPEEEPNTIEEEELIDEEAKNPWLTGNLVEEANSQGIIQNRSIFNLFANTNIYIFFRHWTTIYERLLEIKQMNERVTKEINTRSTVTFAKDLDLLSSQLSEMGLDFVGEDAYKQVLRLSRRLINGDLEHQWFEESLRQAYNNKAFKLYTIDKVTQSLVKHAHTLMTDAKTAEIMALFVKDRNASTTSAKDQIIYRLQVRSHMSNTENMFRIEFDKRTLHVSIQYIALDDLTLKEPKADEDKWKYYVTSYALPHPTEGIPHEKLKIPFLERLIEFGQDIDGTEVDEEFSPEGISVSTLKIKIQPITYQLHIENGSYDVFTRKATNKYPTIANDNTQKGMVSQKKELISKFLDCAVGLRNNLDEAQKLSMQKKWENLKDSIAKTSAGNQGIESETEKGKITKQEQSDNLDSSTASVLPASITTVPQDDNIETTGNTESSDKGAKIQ

Rco1 = target: B3
Ume1 = target: B1
cryo-EM structure = target: the molecule itself

Row | binding result (Sin3) | binding result (Rco1) | binding result (Ume1) | Binder | binding result (cryo-EM structure)
1 | binds | – | – | B1 | –
2 | – | binds | binds | B2 | –
3 | binds | – | – | B3 | binds
4 | binds | binds | – | B4 | –

— paper doi:10.1101/2023.08.03.551877 (bioRxiv, 2023)
